# Values of other authors as cited in publication PMC3405059.
# Target: MSPβ beta chain (Homo sapiens) (UniProt P26927)
# Assay: SPR
# UniProt P26927, sequence (P26927 484-711): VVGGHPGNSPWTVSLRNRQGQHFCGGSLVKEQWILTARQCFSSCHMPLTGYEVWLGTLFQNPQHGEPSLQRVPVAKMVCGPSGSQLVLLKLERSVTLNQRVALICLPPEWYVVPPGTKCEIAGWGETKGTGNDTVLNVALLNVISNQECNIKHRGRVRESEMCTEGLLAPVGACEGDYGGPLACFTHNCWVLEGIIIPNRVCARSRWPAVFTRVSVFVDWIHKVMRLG
substance,measurement,value
RON ECD (from UniProt Q04912),Kd,13 nM
